Test results: US11278600B2, “Human alpha-galactosidase variants” (Codexis, Inc., priority 2014, dated 2022)

Experiments:
Type in all cases: biochemical
[1] = HTP-analysis of yeast culture supernatants, no challenge (MUGal hydrolysis); details: activity of the variant/activity of Rd2BB (SEQ ID NO: 10), yeast culture supernatant
Procedure, shortened: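 Activity read as 4-methylumbelliferyl α-D-galactopyranoside hydrolysis: fluorescence (355/448 nm) after sodium carbonate stop, following 30-180 min at 37° C with 2 mM MUGal stock at pH 4.6–4.8. Enzyme source is unchallenged culture supernatant of INVSc1 yeast expressing GLA variants, grown 66-84 h at 30° C.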

[2] = HTP-analysis of supernatants pretreated with base (MUGal hydrolysis); details: challenge at pH 7.6; activity of the variant/activity of Rd2BB (SEQ ID NO: 10); yeast culture supernatant
Procedure, shortened: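 Fluorescence of released 4-MU (Ex 355 nm, Em 448 nm) after carbonate quench reports MUGal hydrolysis by GLA variants secreted from INVSc1 yeast. Before the acidic (pH 4.3-4.8) 30-180 min reaction at 37° C, supernatants had been pre-incubated at pH 7.0-9.7 for 1-18 h at 37° C.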

[3] = HTP-analysis of supernatants pretreated with acid (MUGal hydrolysis); details: challenge at pH 4.2; activity of the variant/activity of Rd2BB (SEQ ID NO: 10); yeast culture supernatant
Procedure, shortened: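 GLA variants were secreted from INVSc1 yeast grown 66-84 h at 30° C. in SD-Ura with 2% glucose; supernatants were mixed with McIlvaine buffer pH 3.3-4.3 and held at 37° C. for 1-3 h. Residual activity on MUGal at pH 4.8 was then measured by fluorescence.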

[4] = HTP-analysis of supernatants pretreated with bovine serum (MUGal hydrolysis); details: activity of the variant/activity of Rd2BB (SEQ ID NO: 10), yeast culture supernatant
Procedure, shortened: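 Yeast INVSc1 culture supernatants containing secreted GLA variants were mixed with bovine serum (20:80) and held 1 h at 37° C. Serum-treated samples then reacted with MUGal (4 mM stock) in citrate/McIlvaine buffer (pH 4.3/4.8) for 180 min at 37° C., were quenched with sodium carbonate, and read by fluorescence (Ex 355, Em 448 nm).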

| Molecule | Relative Activity of GLA Variants After No Challenge (NC) [1] | Relative Activity of GLA Variants After Challenge at pH 7.6 [2] | Relative Activity of GLA Variants After Challenge at pH 4.2 [3] | Relative Activity of GLA Variants After Challenge with Serum [4] |
| --- | --- | --- | --- | --- |
| 262 (protein, Synthetic Polypeptide sequence of Variant No. 262 of mature Human GLA) LDNGLARTPTMGWLHWERFMCNLDCQEEPDSCISEKLFMEMAELMVSEGWKDAGYEYLCIDDCWMAPQRDSEGRLQADPQRFPHGIRQLANYVHSKGLKFGIYADVGNKTCAGFPGSFGYYDIDAQTFADWGVDLLKFDGCYCDSLENLADGYKHMSLALNRTGRSIVYSCEWPLYMWPFQKPNYTEIRQYCNHWRNFADIDDSWASIKSILDWTSFNQEKIVDVAGPGGWNDPDMLVIGNFGLSWDQQVTQMALWAIMAAPLFMSNDLRHISPQAKALLQDKDVIAINQDPLGKQGYQLRKGDNFEVWERPLSGLAWAVAVINRQEIGGPRSYTIAVASLGKGVACNPACFITQLLPVKRKLGLYEWTSRLKSHVNPTGTVLLQLENTMQMSLKDLL | ++ (++ = 1.5 to 2.5 relative activity over Rd2BB (SEQ ID NO: 10)) | +++ (+++ = >2.5 relative activity over Rd2BB (SEQ ID NO: 10)) | +++ (+++ = >2.5 relative activity over Rd2BB (SEQ ID NO: 10)) | +++ (+++ = >2.5 relative activity over Rd2BB (SEQ ID NO: 10)) |
| 263 (protein, Synthetic Polypeptide sequence of Variant No. 263 of mature Human GLA) LDNGLARTPTMGWLHWERFMCNLDCQEEPDSCISEKLFMEMAELMVSEGWKDAGYEYLCIDDCWMAPQRDSEGRLQADPQRFPHGIRQLANYVHSKGLKFGIYADVGNKTCAGFPGSFGYYDIDAQTFADWGVDLLKFDGCYCDSLENLADGYKHMSLALNRTGRSIVYSCEWPLYMWPFQKPNYTEIRQYCNHWRNFADIDDSWASIKSILDWTSFNQEKIVDVAGPGGWNDPDMLVIGNFGLSWDQQVTQMALWAIMAAPLFMSNDLRHISPQAKALLQDKDVIAINQDPLGKQGYQLRKGDNFEVWERPLSGLAWAVAVINRQEIGGPRSYTIAVASLGKGVACNPACFITQLLPVKRKLGFYEWTSRLRSHVNPTGTVLLQLENTMQMSLKDLL | + (+ = 0.5 to 1.5 relative activity over Rd2BB (SEQ ID NO: 10)) | ++ (++ = 1.5 to 2.5 relative activity over Rd2BB (SEQ ID NO: 10)) | ++ (++ = 1.5 to 2.5 relative activity over Rd2BB (SEQ ID NO: 10)) | +++ (+++ = >2.5 relative activity over Rd2BB (SEQ ID NO: 10)) |
| 264 (protein, Synthetic Polypeptide sequence of Variant No. 264 of mature Human GLA) LDNGLARTPTMGWLHWERFMCNLDCQEEPDSCISEKLFMEMAELMVSEGWKDAGYEYLCIDDCWMAPQRDSEGRLQADPQRFPHGIRQLANYVHSKGLKFGIYADVGNKTCAGFPGSFGYYDIDAQTFADWGVDLLKFDGCYCDSLENLADGYKHMSLALNRTGRSIVYSCEWPLYMWPFQKPNYTEIRQYCNHWRNFADIDDSWASIKSILDWTSFNQEKIVDVAGPGGWNDPDMLVIGNFGLSWDQQVTQMALWAIMAAPLFMSNDLRHISPQAKALLQDKDVIAINQDPLGKQGYQLRKGDNFEVWERPLSGLAWAVAVINRQEIGGPRSYTIAVASLGDGVACNPACFITQLLPVKRKLGFYEWTSRLKSHVNPTGTVLLQLENTMQMSLKDLL | ++ (++ = 1.5 to 2.5 relative activity over Rd2BB (SEQ ID NO: 10)) | +++ (+++ = >2.5 relative activity over Rd2BB (SEQ ID NO: 10)) | ++ (++ = 1.5 to 2.5 relative activity over Rd2BB (SEQ ID NO: 10)) | ++ (++ = 1.5 to 2.5 relative activity over Rd2BB (SEQ ID NO: 10)) |
